Measurements published in patent CN114075291A (THE FIRST AFFILIATED HOSPITAL OF NAVAL MEDICAL UNIV OF …, dated 2022).

Molecular target: T1, 人PSMA抗原 (前列腺特异性膜抗原, prostrate specific membrane antigen) (human, UniProt Q04609 1-750)
T1 construct: whole, on cells; it is treated here as the same protein; also called PSMA蛋白
Experiment: FACS, scFv culture supernatant on 293T-PSMA cells, APC anti 6XHis secondary

T1 sequence (Q04609 whole entry): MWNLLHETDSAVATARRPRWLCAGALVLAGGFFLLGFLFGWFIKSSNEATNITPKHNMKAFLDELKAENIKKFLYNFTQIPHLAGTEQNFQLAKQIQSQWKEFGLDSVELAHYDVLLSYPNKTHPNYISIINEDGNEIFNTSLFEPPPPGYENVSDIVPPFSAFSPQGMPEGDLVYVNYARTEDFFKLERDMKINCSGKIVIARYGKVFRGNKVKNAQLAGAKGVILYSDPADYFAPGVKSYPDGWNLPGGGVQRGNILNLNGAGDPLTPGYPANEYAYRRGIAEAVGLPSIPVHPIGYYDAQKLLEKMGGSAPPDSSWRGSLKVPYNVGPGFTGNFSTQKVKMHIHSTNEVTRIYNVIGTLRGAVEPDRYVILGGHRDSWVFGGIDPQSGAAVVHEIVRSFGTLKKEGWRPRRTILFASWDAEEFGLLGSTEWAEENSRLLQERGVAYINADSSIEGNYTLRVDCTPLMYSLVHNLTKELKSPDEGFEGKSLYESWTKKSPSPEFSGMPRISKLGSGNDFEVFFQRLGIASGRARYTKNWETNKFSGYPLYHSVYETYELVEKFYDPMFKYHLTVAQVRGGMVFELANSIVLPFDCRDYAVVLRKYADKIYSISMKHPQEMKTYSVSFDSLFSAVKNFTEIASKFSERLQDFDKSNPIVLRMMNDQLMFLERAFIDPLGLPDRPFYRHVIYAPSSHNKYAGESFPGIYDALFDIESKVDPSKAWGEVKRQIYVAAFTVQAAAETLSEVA

B1: 抗PSMA单链抗体1 (scFv, V domains shown)
VH: EVQLVESGGGVVQPGRSLRLSCAASGFTFSSYAMHWVRQAPGKGLEWVAVISYDGSNKYYADSVKGRFTISRDNSKNTLYLQMNSLRAEDTAVYYCARDYPLDDILTFPRVGTLDYWGQGTTVTVSS
VL: EIVLTQSPLSLPVTPGEPASISCRSSQSLLHSNGYNYLGWYLQKPGQSPQLLIYLGSNRASGVPDRFSGSGSGTDFTLKISRVEAEDVGVYYCMQALQTGFTFGPGTKVEIK
notes: Soluble scFv from a fully human phage library, made in E. coli TG1 and detected with APC anti 6XHis, so it carries a His tag; also called 抗体HTS0101; HTS0101
Q: Does B1 bind?
A: binds
